From patent US20040260064

Experiments:
[1] = test system: recombinant human macrophage stimulating protein (MSP)
[2] = test system: recombinant murine macrophage stimulating protein (MSP)

Chain of human kallikrein (Enzyme System Products) (chain, as listed by the source): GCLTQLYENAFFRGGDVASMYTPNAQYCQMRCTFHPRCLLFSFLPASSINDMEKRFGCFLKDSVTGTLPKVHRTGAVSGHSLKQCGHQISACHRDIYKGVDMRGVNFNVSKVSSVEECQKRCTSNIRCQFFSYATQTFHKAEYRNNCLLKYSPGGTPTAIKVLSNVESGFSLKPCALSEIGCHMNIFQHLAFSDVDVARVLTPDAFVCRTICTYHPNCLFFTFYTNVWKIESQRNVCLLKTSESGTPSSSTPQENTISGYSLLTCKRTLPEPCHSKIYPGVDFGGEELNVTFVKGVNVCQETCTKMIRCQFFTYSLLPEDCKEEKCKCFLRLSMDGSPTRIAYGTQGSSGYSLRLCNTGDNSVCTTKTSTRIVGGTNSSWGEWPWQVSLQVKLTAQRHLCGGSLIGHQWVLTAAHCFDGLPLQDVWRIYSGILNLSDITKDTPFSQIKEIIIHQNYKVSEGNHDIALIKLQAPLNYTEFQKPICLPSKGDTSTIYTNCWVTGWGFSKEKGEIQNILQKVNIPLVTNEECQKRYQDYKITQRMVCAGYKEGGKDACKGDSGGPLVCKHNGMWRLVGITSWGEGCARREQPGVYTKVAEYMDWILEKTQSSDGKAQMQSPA

## human kallikrein (Enzyme System Products)
Human MSP C672A analog
  cleavage of proMSP analog seen by SDS-PAGE under reducing conditions: Kallikrein treatment efficiently cleaves proMSP or proMSP analog between the α and β subunits
Murine MSP C677A analog
  cleavage of proMSP analog seen by SDS-PAGE under reducing conditions: Kallikrein treatment efficiently cleaves proMSP or proMSP analog between the α and β subunits
[1]
  cleavage of proMSP seen by SDS-PAGE under reducing conditions: Kallikrein treatment efficiently cleaves proMSP or proMSP analog between the α and β subunits
[2]
  cleavage of proMSP seen by SDS-PAGE under reducing conditions: Kallikrein treatment efficiently cleaves proMSP or proMSP analog between the α and β subunits
